Results as given in article PMC9482650, “Quantitative fragmentomics allow affinity mapping of interactomes” (Nature Communications, 2022).

Each binder was assayed against GORASP1, Q9BQQ3 (assay: holdup assay). Settings: plain residues with an end cap or a label only (N-terminal biotin on a linker: ado-ado).
Set-up: key: below the threshold = too weak to quantify, mostly under pKd 3.1 to 4

Chain of GORASP1, Q9BQQ3 (Q9BQQ3 1-208): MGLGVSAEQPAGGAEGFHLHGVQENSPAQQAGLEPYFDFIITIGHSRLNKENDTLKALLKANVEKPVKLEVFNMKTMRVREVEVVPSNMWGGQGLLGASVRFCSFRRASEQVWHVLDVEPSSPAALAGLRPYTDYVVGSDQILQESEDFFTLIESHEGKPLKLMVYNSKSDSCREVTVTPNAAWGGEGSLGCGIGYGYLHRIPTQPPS

Row | Binder | pKd
1 | PSVGSKKTVL [REELD1, A0A1B0GV85] | below the threshold
2 | LKDDELKTKL [SLCO1A2, P46721] | below the threshold

What follows are binders tested against T1, SIPA1L2, Q9P2F8 (assay: holdup assay). Settings: plain residues with an end cap or a label only (N-terminal biotin on a linker: ado-ado).
T1 sequence (Q9P2F8 945-1036, limits assumed, looked up): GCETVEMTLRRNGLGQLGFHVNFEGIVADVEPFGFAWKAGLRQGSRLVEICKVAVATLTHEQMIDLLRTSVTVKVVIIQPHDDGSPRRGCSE
Set-up: key: below the threshold = too weak to quantify, mostly under pKd 3.1 to 4

Row | Binder | pKd
3 | PSVGSKKTVL [REELD1, A0A1B0GV85] | below the threshold
4 | LKDDELKTKL [SLCO1A2, P46721] | below the threshold

Each binder was assayed against T2, SHANK1, Q9Y566 (assay: holdup assay). Settings: plain residues with an end cap or a label only (N-terminal biotin on a linker: ado-ado).
T2 sequence (Q9Y566 658-767, limits assumed, looked up): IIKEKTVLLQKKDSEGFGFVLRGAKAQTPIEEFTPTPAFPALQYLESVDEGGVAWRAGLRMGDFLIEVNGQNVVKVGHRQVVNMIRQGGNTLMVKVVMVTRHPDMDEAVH
Set-up: key: below the threshold = too weak to quantify, mostly under pKd 3.1 to 4

Row | Binder | pKd
5 | PSVGSKKTVL [REELD1, A0A1B0GV85] | 3.93
6 | LKDDELKTKL [SLCO1A2, P46721] | 5.62

These binders were tested against FRMPD4, Q14CM0 (assay: holdup assay). Settings: plain residues with an end cap or a label only (N-terminal biotin on a linker: ado-ado).
Chain of FRMPD4, Q14CM0 (Q14CM0 67-160): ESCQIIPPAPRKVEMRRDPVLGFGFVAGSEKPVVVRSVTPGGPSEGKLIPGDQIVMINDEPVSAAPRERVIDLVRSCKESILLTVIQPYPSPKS
Set-up: key: below the threshold = too weak to quantify, mostly under pKd 3.1 to 4

Row | Binder | pKd
7 | PSVGSKKTVL [REELD1, A0A1B0GV85] | 3.53
8 | LKDDELKTKL [SLCO1A2, P46721] | 4.17

These binders were tested against T3, NHERF3_3, Q5T2W1 (assay: holdup assay). Settings: plain residues with an end cap or a label only (N-terminal biotin on a linker: ado-ado).
T3 sequence (Q5T2W1 238-333, limits assumed, looked up): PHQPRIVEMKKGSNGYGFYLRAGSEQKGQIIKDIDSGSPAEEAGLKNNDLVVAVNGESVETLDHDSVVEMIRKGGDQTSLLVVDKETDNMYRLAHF
Set-up: key: below the threshold = too weak to quantify, mostly under pKd 3.1 to 4

Row | Binder | pKd
9 | PSVGSKKTVL [REELD1, A0A1B0GV85] | below the threshold
10 | LKDDELKTKL [SLCO1A2, P46721] | 4.17

These binders were tested against TJP1_2, Q07157 (assay: holdup assay). Settings: plain residues with an end cap or a label only (N-terminal biotin on a linker: ado-ado).
Chain of TJP1_2, Q07157 (Q07157 181-274): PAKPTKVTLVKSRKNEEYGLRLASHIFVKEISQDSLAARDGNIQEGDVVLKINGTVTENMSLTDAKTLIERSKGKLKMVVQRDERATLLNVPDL
Set-up: key: below the threshold = too weak to quantify, mostly under pKd 3.1 to 4

Row | Binder | pKd
11 | PSVGSKKTVL [REELD1, A0A1B0GV85] | below the threshold
12 | LKDDELKTKL [SLCO1A2, P46721] | below the threshold

The binders below were run against LNX1_2, Q8TBB1 (assay: holdup assay). Settings: plain residues with an end cap or a label only (N-terminal biotin on a linker: ado-ado).
Chain of LNX1_2, Q8TBB1 (Q8TBB1 371-470): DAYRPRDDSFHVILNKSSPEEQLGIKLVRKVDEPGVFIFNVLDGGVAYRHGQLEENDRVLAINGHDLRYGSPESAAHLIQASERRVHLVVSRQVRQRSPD
Set-up: key: below the threshold = too weak to quantify, mostly under pKd 3.1 to 4

Row | Binder | pKd
13 | PSVGSKKTVL [REELD1, A0A1B0GV85] | below the threshold
14 | LKDDELKTKL [SLCO1A2, P46721] | below the threshold

Each binder was assayed against T4, GRIP1_5, Q9Y3R0 (assay: holdup assay). Settings: plain residues with an end cap or a label only (N-terminal biotin on a linker: ado-ado).
T4 sequence (Q9Y3R0 568-668, limits assumed, looked up): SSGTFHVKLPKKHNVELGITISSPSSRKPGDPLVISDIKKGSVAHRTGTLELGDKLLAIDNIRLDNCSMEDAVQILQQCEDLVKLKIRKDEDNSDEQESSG
Set-up: key: below the threshold = too weak to quantify, mostly under pKd 3.1 to 4

Row | Binder | pKd
15 | PSVGSKKTVL [REELD1, A0A1B0GV85] | below the threshold
16 | LKDDELKTKL [SLCO1A2, P46721] | below the threshold

The binders below were run against PICK1, Q9NRD5 (assay: holdup assay). Settings: plain residues with an end cap or a label only (N-terminal biotin on a linker: ado-ado).
Chain of PICK1, Q9NRD5 (Q9NRD5 17-115): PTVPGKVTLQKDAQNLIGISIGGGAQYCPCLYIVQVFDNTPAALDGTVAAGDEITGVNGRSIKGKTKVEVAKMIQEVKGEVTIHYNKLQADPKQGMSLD
Set-up: key: below the threshold = too weak to quantify, mostly under pKd 3.1 to 4

Row | Binder | pKd
17 | PSVGSKKTVL [REELD1, A0A1B0GV85] | below the threshold
18 | LKDDELKTKL [SLCO1A2, P46721] | below the threshold

What follows are binders tested against T5, LIN7C, Q9NUP9 (assay: holdup assay). Settings: plain residues with an end cap or a label only (N-terminal biotin on a linker: ado-ado).
T5 sequence (Q9NUP9 88-185, limits assumed, looked up): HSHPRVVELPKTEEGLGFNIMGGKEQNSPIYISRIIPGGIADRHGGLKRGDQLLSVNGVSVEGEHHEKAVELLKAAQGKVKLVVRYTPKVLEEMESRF
Set-up: key: below the threshold = too weak to quantify, mostly under pKd 3.1 to 4

Row | Binder | pKd
19 | PSVGSKKTVL [REELD1, A0A1B0GV85] | below the threshold
20 | LKDDELKTKL [SLCO1A2, P46721] | below the threshold

What follows are binders tested against T6, DVL3, Q92997 (assay: holdup assay). Settings: plain residues with an end cap or a label only (N-terminal biotin on a linker: ado-ado).
T6 sequence (Q92997 244-331, limits assumed, looked up): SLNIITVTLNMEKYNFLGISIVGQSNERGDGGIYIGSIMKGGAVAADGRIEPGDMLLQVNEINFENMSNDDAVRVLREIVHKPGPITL
Set-up: key: below the threshold = too weak to quantify, mostly under pKd 3.1 to 4

Row | Binder | pKd
21 | PSVGSKKTVL [REELD1, A0A1B0GV85] | below the threshold
22 | LKDDELKTKL [SLCO1A2, P46721] | below the threshold

The binders below were run against T7, DFNB31_3, Q9P202 (assay: holdup assay). Settings: plain residues with an end cap or a label only (N-terminal biotin on a linker: ado-ado).
T7 sequence (Q9P202 811-907, limits assumed, looked up): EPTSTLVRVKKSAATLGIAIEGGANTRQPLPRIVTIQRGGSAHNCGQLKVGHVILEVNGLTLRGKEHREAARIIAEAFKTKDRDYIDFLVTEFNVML
Set-up: key: below the threshold = too weak to quantify, mostly under pKd 3.1 to 4

Row | Binder | pKd
23 | PSVGSKKTVL [REELD1, A0A1B0GV85] | below the threshold
24 | LKDDELKTKL [SLCO1A2, P46721] | below the threshold

The binders below were run against T8, SNTB1, Q13884 (assay: holdup assay). Settings: plain residues with an end cap or a label only (N-terminal biotin on a linker: ado-ado).
T8 sequence (Q13884 107-205, limits assumed, looked up): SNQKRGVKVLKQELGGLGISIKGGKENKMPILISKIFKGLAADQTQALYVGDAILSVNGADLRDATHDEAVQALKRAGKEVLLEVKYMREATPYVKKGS
Set-up: key: below the threshold = too weak to quantify, mostly under pKd 3.1 to 4

Row | Binder | pKd
25 | PSVGSKKTVL [REELD1, A0A1B0GV85] | 3.56
26 | LKDDELKTKL [SLCO1A2, P46721] | below the threshold

The binders below were run against T9, LNX2_2, Q8N448 (assay: holdup assay). Settings: plain residues with an end cap or a label only (N-terminal biotin on a linker: ado-ado).
T9 sequence (Q8N448 334-432, limits assumed, looked up): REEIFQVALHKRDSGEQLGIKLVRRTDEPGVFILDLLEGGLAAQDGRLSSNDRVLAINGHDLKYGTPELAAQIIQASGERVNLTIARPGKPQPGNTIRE
Set-up: key: below the threshold = too weak to quantify, mostly under pKd 3.1 to 4

Row | Binder | pKd
27 | PSVGSKKTVL [REELD1, A0A1B0GV85] | below the threshold
28 | LKDDELKTKL [SLCO1A2, P46721] | below the threshold

Each binder was assayed against GORASP2, Q9H8Y8 (assay: holdup assay). Settings: plain residues with an end cap or a label only (N-terminal biotin on a linker: ado-ado).
Set-up: key: below the threshold = too weak to quantify, mostly under pKd 3.1 to 4

Row | Binder | pKd
29 | PSVGSKKTVL [REELD1, A0A1B0GV85] | below the threshold
30 | LKDDELKTKL [SLCO1A2, P46721] | below the threshold

These binders were tested against GRID2IP_1, A4D2P6 (assay: holdup assay). Settings: plain residues with an end cap or a label only (N-terminal biotin on a linker: ado-ado).
Chain of GRID2IP_1, A4D2P6 (A4D2P6 1-87): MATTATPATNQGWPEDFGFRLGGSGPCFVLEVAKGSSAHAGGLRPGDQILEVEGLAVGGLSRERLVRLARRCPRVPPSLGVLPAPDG
Set-up: key: below the threshold = too weak to quantify, mostly under pKd 3.1 to 4

Row | Binder | pKd
31 | PSVGSKKTVL [REELD1, A0A1B0GV85] | below the threshold
32 | LKDDELKTKL [SLCO1A2, P46721] | below the threshold

The binders below were run against SCRIB_2, Q14160 (assay: holdup assay). Settings: plain residues with an end cap or a label only (N-terminal biotin on a linker: ado-ado).
Chain of SCRIB_2, Q14160 (Q14160 857-960): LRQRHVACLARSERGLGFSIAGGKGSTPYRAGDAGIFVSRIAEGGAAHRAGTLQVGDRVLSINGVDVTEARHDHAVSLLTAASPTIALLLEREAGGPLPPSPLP
Set-up: key: below the threshold = too weak to quantify, mostly under pKd 3.1 to 4

Row | Binder | pKd
33 | PSVGSKKTVL [REELD1, A0A1B0GV85] | below the threshold
34 | LKDDELKTKL [SLCO1A2, P46721] | below the threshold

These binders were tested against FRMPD2_3, Q68DX3 (assay: holdup assay). Settings: plain residues with an end cap or a label only (N-terminal biotin on a linker: ado-ado).
Chain of FRMPD2_3, Q68DX3 (Q68DX3 1073-1166): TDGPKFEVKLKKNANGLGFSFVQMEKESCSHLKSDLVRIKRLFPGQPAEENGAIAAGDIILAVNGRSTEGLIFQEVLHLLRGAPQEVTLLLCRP
Set-up: key: below the threshold = too weak to quantify, mostly under pKd 3.1 to 4

Row | Binder | pKd
35 | PSVGSKKTVL [REELD1, A0A1B0GV85] | below the threshold
36 | LKDDELKTKL [SLCO1A2, P46721] | below the threshold

Each binder was assayed against GRIP2_3, Q9C0E4 (assay: holdup assay). Settings: plain residues with an end cap or a label only (N-terminal biotin on a linker: ado-ado).
Chain of GRIP2_3, Q9C0E4 (Q9C0E4 238-339): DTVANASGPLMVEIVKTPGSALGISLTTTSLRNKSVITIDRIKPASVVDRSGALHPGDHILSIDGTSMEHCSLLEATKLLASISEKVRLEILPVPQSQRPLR
Set-up: key: below the threshold = too weak to quantify, mostly under pKd 3.1 to 4

Row | Binder | pKd
37 | PSVGSKKTVL [REELD1, A0A1B0GV85] | below the threshold
38 | LKDDELKTKL [SLCO1A2, P46721] | below the threshold

What follows are binders tested against T10, DLG3_2, Q92796 (assay: holdup assay). Settings: plain residues with an end cap or a label only (N-terminal biotin on a linker: ado-ado).
T10 sequence (Q92796 221-321, limits assumed, looked up): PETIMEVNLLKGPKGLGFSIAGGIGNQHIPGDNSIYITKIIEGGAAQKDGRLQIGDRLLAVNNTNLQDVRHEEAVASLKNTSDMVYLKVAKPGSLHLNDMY
Set-up: key: below the threshold = too weak to quantify, mostly under pKd 3.1 to 4

Row | Binder | pKd
39 | PSVGSKKTVL [REELD1, A0A1B0GV85] | below the threshold
40 | LKDDELKTKL [SLCO1A2, P46721] | below the threshold

What follows are binders tested against T11, MPDZ_5, O75970 (assay: holdup assay). Settings: plain residues with an end cap or a label only (N-terminal biotin on a linker: ado-ado).
T11 sequence (O75970 695-796, limits assumed, looked up): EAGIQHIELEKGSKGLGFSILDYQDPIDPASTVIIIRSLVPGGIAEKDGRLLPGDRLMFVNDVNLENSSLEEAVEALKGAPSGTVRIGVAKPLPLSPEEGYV
Set-up: key: below the threshold = too weak to quantify, mostly under pKd 3.1 to 4

Row | Binder | pKd
41 | PSVGSKKTVL [REELD1, A0A1B0GV85] | below the threshold
42 | LKDDELKTKL [SLCO1A2, P46721] | below the threshold

What follows are binders tested against AHNAK1, Q09666 (assay: holdup assay). Settings: plain residues with an end cap or a label only (N-terminal biotin on a linker: ado-ado).
Chain of AHNAK1, Q09666 (Q09666 4-100): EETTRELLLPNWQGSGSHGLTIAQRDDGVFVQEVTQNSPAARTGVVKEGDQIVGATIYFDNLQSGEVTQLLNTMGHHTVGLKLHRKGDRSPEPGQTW
Set-up: key: below the threshold = too weak to quantify, mostly under pKd 3.1 to 4

Row | Binder | pKd
43 | PSVGSKKTVL [REELD1, A0A1B0GV85] | below the threshold
44 | LKDDELKTKL [SLCO1A2, P46721] | below the threshold

What follows are binders tested against T12, NHERF3_4, Q5T2W1 (assay: holdup assay). Settings: plain residues with an end cap or a label only (N-terminal biotin on a linker: ado-ado).
T12 sequence (Q5T2W1 373-468, limits assumed, looked up): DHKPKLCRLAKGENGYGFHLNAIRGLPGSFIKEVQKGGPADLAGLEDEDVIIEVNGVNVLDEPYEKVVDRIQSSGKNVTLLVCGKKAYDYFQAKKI
Set-up: key: below the threshold = too weak to quantify, mostly under pKd 3.1 to 4

Row | Binder | pKd
45 | PSVGSKKTVL [REELD1, A0A1B0GV85] | 3.87
46 | LKDDELKTKL [SLCO1A2, P46721] | 4.91

Each binder was assayed against MAGI3_2, Q5TCQ9 (assay: holdup assay). Settings: plain residues with an end cap or a label only (N-terminal biotin on a linker: ado-ado).
Chain of MAGI3_2, Q5TCQ9 (Q5TCQ9 398-503): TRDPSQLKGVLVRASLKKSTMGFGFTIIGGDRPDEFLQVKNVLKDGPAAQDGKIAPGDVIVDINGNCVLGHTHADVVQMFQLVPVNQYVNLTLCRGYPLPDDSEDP
Set-up: key: below the threshold = too weak to quantify, mostly under pKd 3.1 to 4

Row | Binder | pKd
47 | PSVGSKKTVL [REELD1, A0A1B0GV85] | 3.51
48 | LKDDELKTKL [SLCO1A2, P46721] | below the threshold

Each binder was assayed against Inadl_2, Q8NI35 (assay: holdup assay). Settings: plain residues with an end cap or a label only (N-terminal biotin on a linker: ado-ado).
Chain of Inadl_2, Q8NI35 (Q8NI35 238-335): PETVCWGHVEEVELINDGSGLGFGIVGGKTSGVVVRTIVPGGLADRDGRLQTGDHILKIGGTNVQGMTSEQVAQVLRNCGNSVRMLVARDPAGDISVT
Set-up: key: below the threshold = too weak to quantify, mostly under pKd 3.1 to 4

Row | Binder | pKd
49 | PSVGSKKTVL [REELD1, A0A1B0GV85] | below the threshold
50 | LKDDELKTKL [SLCO1A2, P46721] | below the threshold
